The values that follow come from PMC12301328, “Identification of a preferred DNA binding sequence and novel regulon member for CadR in Pseudomonas aeruginosa PAO1”.

Data set [1] deals with CadR from Pseudomonas aeruginosa PAO1 (PaCadR) (Pseudomonas aeruginosa PAO1). Kind of data set: not stated; purified PaCadR in solution (Supplementary Figure S7); method not given.
For data set [2] the target is unchanged. Kind of data set: native gel or EMSA; adaptation of a Ferguson plot of the DNA-bound PaCadR species on native PAGE (Supplementary Figure S6); PaCadR bound to its consensus DNA.
For data set [3], the target named is T1, PaCadR (Pseudomonas aeruginosa PAO1, UniProt Q9HXV1 1-156).
T1 sequence: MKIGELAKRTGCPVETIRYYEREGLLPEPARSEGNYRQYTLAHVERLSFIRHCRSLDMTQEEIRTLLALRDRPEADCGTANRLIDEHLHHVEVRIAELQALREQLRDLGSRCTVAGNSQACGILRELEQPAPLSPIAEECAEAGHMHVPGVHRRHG
Kind of data set: BLI; no added metal; EMSA: 1X CutSmart buffer, 1 mM DTT, 3 mM EDTA, 5 nM each DNA, 37 C, 20 min; BLI: 20 mM Tris-Cl pH 7.5, 100 mM NaCl, 0.01% Tween-20, 1 mM DTT, 37 C. The conditions noted are these: protein: recombinant; chain copies: 2; label: 5' biotin on ST2R strand; blunt. On the technique in general: BLI is a label-free optical method that tracks binding on a fibre tip over time.

Data set [4] addresses T1, PaCadR. Kind of data set: EMSA; 50 nM PaCadR; not significantly different from WT; EMSA: 1X CutSmart buffer, 1 mM DTT, 3 mM EDTA, 5 nM each DNA, 37 C, 20 min; BLI: 20 mM Tris-Cl pH 7.5, 100 mM NaCl, 0.01% Tween-20, 1 mM DTT, 37 C. To be noted: protein: recombinant; chain copies: 2; label: 5' IRDye-700 on ST2R strand; blunt. In general terms: Mobility shift assays separate free from complexed probe on a gel.

Data set [5] deals with T1, PaCadR. Kind of data set: EMSA; 20-80 nM PaCadR; EMSA: 1X CutSmart buffer, 1 mM DTT, 3 mM EDTA, 5 nM each DNA, 37 C, 20 min; BLI: 20 mM Tris-Cl pH 7.5, 100 mM NaCl, 0.01% Tween-20, 1 mM DTT, 37 C. The conditions noted are these: protein: recombinant; chain copies: 2; label: 5' IRDye-800 on ConL strand; blunt.

As for “CadR from Pseudomonas aeruginosa PAO1 (PaCadR) (from UniProt A0A0H2ZEP1 1-156) (natural protein)”, the stoichiometry N in data set [1] and in data set [2] was 2 in each case.

B1: Control (BLI) (dsDNA)
DNA 1: CTAGGAATTCGTGCAGAGGTGACGTCATAGAATTCGCATCCCTCCAGAAGCTTGGAC
DNA 2: GTCCAAGCTTCTGGAGGGATGCGAATTCTATGACGTCACCTCTGCACGAATTCCTAG
For B1, the binding result in data set [3] is “no binding”.

B2: ST2_CadR_mt12 (dsDNA)
DNA 1: CTAGGAATTCGTGCAGAGGTGAAACCCTGTAGTGACTACAGGGTTCATCCCTCCAGAAGCTTGGAC
DNA 2: GTCCAAGCTTCTGGAGGGATGAACCCTGTAGTCACTACAGGGTTTCACCTCTGCACGAATTCCTAG
On to B2, for which the binding result in data set [4] is recorded as “binds”.

B3: Control (EMSA) (dsDNA)
DNA 1: CCTCTCTATGGGCAGTCGGTGATCTAGGAATTCGTGCAGAGGTGACGTCATAGAATTCGCATCCCTCCAGAAGCTTGGAC
DNA 2: GTCCAAGCTTCTGGAGGGATGCGAATTCTATGACGTCACCTCTGCACGAATTCCTAGATCACCGACTGCCCATAGAGAGG
For the molecule B3, the binding result in data set [5] was “no binding”.

A word on the stoichiometry N: it is the number of molecules, sites or subunits per partner or assembly.
